The target in one assay is FcRn (UniProt P55899). Briefly: Biacore; FcRn directly immobilized; response at end of injection normalised to the standard.
Assay [1] has as its target FcγRI (UniProt P12314). Briefly: Biacore; FcγR captured through anti-His antibody; response at end of injection normalised to the standard.
In a further assay the target is FcγRIIIa V158 (UniProt P08637). The assay is described as above.
Assay [2] concerns the target FcγRI. The assay is described as above.
Another assay deals with Flt3 receptor (human) (UniProt P36888). Description: cell-based or functional assay.
Chain of Flt3 receptor (human) (P36888 27-993): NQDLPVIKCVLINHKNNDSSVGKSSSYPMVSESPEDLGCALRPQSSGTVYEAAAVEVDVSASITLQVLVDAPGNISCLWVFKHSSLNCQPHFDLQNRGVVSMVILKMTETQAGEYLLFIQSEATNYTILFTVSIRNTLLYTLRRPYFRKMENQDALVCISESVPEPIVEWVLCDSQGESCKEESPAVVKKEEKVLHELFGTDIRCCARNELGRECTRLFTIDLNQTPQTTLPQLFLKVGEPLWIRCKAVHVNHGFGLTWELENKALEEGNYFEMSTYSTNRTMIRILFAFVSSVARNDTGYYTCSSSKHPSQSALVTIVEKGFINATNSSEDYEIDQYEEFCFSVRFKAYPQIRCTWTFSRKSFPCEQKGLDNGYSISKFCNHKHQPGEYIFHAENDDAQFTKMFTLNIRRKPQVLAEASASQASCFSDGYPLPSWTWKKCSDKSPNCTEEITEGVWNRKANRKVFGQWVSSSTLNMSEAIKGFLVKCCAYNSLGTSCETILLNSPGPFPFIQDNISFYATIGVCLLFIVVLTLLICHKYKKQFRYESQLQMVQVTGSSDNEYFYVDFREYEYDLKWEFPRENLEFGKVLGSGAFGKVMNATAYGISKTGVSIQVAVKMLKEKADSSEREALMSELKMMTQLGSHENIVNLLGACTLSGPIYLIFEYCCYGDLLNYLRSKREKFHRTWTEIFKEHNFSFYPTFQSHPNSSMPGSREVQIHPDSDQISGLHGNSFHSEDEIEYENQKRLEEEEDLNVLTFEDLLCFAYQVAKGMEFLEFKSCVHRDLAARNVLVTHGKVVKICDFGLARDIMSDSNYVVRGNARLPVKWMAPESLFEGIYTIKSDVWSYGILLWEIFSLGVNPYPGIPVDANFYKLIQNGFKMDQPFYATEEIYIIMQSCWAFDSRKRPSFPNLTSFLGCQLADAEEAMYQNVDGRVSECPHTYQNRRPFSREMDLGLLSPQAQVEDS

Chain of FcγRIIIa V158 (P08637 17-208 F176V limits assumed): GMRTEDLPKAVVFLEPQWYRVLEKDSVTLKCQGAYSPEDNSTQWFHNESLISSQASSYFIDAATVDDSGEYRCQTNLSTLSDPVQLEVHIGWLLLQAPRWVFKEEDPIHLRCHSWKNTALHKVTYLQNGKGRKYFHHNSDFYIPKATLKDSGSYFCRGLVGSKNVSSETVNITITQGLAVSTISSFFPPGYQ
Chain of FcγRI (UniProt P12314) (P12314 16-288 limits assumed): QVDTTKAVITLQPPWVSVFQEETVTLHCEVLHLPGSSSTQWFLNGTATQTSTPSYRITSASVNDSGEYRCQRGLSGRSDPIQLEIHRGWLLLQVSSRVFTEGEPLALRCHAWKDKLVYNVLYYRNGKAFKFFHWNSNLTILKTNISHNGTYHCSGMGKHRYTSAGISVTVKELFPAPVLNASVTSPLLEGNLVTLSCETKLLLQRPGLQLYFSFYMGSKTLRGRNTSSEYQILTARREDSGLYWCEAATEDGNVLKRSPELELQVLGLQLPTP
Chain of FcRn (P55899 24-297 limits assumed, form in doubt): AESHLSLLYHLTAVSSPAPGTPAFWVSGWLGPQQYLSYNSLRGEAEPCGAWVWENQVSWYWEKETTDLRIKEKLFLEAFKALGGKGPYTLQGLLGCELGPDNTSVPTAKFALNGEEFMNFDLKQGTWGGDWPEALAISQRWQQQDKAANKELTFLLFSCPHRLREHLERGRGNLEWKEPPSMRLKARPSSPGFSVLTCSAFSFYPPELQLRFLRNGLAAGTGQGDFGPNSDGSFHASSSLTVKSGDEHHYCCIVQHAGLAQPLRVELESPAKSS

As for “anti-CD20 antibody (ocrelizumab variable domains) with IgG1 LALAPG constant region”, the relative binding level (%) at 10 ug/ml was 95.9% with FcRn, 1.74% in the assay with FcγRI [1], 1.36% in the assay with FcγRIIIa V158 and -0.34% with FcγRI [2].

As to “anti-CD20 antibody (ocrelizumab variable domains) with IgG1 NG constant region”, the relative binding level (%) at 10 ug/ml with FcRn worked out at 86.7%; with FcγRI [1], 4.5%; with FcγRIIIa V158, 2.12%; in the assay with FcγRI [2] it was 0.06%.

With “anti-CD20 antibody (ocrelizumab variable domains) with IgG4 SP constant region”, the relative binding level (%) at 10 ug/ml worked out at 66.5% in the assay with FcRn, 70.6% with FcγRI [1], 3.41% with FcγRIIIa V158 and 14.8% in the assay with FcγRI [2].

Molecule “gCDX-301 (from UniProt P49771 27-179) (ligand)” yielded an EC50 potency, proliferation of OCI-AML5 cells (Cell Titer Glo, 7 days) with Flt3 receptor (human) of 2.3 pM.

B1: anti-CD20 antibody (ocrelizumab variable domains) with IgG2 wildtype constant region (antibody, part only; not given: ocrelizumab variable domains, not shown: another chain or arm of the molecule)
constant: ASTKGPSVFPLAPCSRSTSESTAALGCLVKDYFPEPVTVSWNSGALTSGVHTFPAVLQSSGLYSLSSVVTVPSSNFGTQTYTCNVDHKPSNTKVDKTVERKCCVECPPCPAPPVAGPSVFLFPPKPKDTLMISRTPEVTCVVVDVSHEDPEVQFNWYVDGVEVHNAKTKPREEQFNSTFRVVSVLTVVHQDWLNGKEYKCKVSNKGLPAPIEKTISKTKGQPREPQVYTLPPSREEMTKNQVSLTCLVKGFYPSDIAVEWESNGQPENNYKTTPPMLDSDGSFFLYSKLTVDKSRWQQGNVFSCSVMHEALHNHYTQKSLSLSPGK
In the case of B1, the relative binding level (%) at 10 ug/ml with FcRn is 99.4%; with FcγRI [1], 2.43%; in the assay with FcγRIIIa V158 it was 3.85%; with FcγRI [2], 179%.

For the origin of these results see patent US20260201003A1.
